Test results from US6682898B2, “High-throughput screening assays for modulators of STAT4 activity” (Tularik Inc., priority 1998, dated 2004).
Non-standard residues stand in square brackets, D forms with d. No end group written: not given here. pY = N[C@@H](Cc1ccc(OP(=O)(O)O)cc1)C(=O)O

How the values were obtained:
P85-PI3K = P85-PI3K (Homo sapiens, UniProt P27986); assay: SH2 domain protein binding assay, P85-PI3K; design: key: +++ = high affinity binding
Source text: (§1) This Example describes binding assays for various proteins that contain SH2 domains.

PLCγ = assay: SH2 domain protein binding assay, PLCγ; design: key: +++ = high affinity binding
Source text: as §1

STAT6 = biological target: T1, STAT6 (Homo sapiens, UniProt P42226); assay: SH2 domain protein binding assay, STAT6; design: key: +++ = high affinity binding
T1 sequence (P42226 1-847): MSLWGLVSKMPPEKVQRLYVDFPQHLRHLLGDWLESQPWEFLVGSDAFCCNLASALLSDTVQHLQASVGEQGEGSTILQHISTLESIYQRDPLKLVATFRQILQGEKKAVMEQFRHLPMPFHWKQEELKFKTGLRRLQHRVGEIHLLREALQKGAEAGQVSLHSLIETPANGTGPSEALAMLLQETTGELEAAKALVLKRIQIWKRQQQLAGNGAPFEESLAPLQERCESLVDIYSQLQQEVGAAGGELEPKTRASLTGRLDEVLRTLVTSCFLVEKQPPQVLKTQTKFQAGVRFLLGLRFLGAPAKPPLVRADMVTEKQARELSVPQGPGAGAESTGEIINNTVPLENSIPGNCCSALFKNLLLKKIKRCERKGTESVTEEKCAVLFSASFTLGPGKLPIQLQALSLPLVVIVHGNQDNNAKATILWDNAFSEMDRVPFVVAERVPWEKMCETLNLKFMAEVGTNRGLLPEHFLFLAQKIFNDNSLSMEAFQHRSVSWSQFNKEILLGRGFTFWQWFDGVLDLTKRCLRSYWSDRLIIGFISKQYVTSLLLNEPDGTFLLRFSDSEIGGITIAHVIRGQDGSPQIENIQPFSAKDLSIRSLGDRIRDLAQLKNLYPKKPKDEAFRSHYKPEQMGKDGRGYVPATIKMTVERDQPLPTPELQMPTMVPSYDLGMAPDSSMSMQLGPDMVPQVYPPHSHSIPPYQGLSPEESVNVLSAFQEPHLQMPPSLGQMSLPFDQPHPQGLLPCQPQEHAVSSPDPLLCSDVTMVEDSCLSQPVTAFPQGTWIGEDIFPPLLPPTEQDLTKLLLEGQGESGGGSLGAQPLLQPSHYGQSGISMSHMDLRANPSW
Source text: as §1

Ras-GAP = biological target: T2, Ras-GAP (Homo sapiens, UniProt P20936); assay: SH2 domain protein binding assay, Ras-GAP; design: key: +++ = high affinity binding
T2 sequence (P20936 1-1047): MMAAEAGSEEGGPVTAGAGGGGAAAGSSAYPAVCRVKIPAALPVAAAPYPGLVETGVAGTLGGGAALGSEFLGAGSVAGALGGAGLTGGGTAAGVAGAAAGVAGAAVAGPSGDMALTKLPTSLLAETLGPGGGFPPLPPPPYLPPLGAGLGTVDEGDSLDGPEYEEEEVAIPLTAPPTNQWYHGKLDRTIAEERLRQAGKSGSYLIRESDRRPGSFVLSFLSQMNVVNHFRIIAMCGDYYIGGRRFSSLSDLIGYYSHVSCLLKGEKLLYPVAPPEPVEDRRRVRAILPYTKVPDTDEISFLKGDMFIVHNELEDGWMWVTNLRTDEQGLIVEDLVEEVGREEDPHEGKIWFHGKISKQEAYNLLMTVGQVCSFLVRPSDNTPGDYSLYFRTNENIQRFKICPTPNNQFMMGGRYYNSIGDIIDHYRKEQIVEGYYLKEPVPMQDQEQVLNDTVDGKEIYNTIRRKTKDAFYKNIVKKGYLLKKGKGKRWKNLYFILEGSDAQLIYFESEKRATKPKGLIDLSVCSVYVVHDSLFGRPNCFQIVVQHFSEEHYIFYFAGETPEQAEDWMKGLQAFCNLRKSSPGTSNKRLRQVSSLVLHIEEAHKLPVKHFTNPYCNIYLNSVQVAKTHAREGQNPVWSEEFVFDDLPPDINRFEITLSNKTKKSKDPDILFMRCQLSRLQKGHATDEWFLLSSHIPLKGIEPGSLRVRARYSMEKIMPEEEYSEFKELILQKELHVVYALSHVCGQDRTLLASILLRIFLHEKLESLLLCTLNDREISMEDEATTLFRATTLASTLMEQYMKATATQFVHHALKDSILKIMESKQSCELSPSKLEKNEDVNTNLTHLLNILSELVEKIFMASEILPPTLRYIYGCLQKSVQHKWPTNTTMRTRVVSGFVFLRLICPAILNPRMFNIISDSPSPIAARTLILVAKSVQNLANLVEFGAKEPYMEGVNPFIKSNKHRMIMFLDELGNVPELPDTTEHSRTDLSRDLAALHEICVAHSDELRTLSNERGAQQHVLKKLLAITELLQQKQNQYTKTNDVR
Source text: as §1

Syp = biological target: T3, Syp (Homo sapiens, UniProt Q06124); assay: SH2 domain protein binding assay, Syp; design: key: +++ = high affinity binding
T3 sequence (Q06124 1-593): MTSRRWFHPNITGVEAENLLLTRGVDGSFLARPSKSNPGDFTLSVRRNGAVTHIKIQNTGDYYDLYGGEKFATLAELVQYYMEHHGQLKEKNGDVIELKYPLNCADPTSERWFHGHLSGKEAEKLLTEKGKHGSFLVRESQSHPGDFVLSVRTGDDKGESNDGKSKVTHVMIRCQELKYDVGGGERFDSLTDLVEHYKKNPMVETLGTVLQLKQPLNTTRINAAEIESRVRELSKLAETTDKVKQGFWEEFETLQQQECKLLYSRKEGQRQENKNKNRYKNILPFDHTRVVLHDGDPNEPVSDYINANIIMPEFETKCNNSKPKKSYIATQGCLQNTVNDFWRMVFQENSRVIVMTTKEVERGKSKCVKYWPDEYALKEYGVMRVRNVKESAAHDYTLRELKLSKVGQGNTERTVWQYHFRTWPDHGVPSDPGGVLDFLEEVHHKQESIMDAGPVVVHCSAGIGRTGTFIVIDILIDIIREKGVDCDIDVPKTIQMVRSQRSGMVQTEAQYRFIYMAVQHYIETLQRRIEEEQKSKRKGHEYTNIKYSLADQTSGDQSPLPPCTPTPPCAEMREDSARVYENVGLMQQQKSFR
Source text: as §1

Src = Src (Homo sapiens, UniProt P12931); assay: SH2 domain protein binding assay, Src; design: key: +++ = high affinity binding
Source text: as §1

STAT1 protein [1] = biological target: T4, STAT1 protein (UniProt P42224 1-750, limits assumed); assay: concentration at 50% binding of the STAT protein to the phosphotyrosine peptide (Example 4)
T4 sequence (looked up): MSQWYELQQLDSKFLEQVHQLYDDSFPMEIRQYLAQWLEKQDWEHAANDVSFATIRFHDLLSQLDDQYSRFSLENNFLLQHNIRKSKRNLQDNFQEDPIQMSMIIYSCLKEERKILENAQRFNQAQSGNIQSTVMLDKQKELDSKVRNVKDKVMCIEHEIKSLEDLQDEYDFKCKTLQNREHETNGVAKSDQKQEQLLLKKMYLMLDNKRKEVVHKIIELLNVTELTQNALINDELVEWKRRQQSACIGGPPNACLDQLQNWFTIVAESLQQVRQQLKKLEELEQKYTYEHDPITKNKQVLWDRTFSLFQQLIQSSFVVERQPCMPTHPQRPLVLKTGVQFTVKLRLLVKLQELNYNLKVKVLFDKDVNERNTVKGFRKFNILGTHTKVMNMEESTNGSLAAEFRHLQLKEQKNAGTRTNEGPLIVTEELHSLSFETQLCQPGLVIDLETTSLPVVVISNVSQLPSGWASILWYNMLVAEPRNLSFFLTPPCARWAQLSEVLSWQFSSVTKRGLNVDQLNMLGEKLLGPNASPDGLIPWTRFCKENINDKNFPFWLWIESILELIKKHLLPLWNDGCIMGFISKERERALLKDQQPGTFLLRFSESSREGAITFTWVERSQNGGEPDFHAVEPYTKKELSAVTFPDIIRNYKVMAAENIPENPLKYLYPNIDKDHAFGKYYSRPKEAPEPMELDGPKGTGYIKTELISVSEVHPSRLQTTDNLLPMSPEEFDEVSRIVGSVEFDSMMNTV

STAT4 = biological target: T5, STAT4 (UniProt Q14765 1-748, limits assumed); assay: as above
T5 construct: also called STAT4 polypeptide
T5 sequence (looked up): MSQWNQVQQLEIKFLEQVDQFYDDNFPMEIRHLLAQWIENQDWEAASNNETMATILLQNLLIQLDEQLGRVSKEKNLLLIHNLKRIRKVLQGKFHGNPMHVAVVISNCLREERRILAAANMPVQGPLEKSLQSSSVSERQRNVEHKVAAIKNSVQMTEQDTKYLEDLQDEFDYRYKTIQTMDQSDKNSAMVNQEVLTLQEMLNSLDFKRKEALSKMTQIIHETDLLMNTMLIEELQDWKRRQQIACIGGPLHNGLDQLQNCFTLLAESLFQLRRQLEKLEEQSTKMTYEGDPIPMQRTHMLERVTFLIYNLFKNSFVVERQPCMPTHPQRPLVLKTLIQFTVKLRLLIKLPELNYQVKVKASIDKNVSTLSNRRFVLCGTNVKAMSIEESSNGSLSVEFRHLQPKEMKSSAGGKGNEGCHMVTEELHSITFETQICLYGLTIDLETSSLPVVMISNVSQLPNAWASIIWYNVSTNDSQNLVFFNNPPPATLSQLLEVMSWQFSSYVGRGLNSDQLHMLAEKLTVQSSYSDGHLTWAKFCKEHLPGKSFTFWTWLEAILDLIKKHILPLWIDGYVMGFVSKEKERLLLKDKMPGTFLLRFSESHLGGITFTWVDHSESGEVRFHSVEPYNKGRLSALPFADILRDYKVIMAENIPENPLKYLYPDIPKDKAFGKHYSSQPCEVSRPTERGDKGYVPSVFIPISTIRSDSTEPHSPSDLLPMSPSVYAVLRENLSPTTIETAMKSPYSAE

STAT1 protein [2] = biological target: T4, STAT1 protein; assay: method not stated; told of the SH2 domain of STAT1 at the start of Example 1

Sequence of P85-PI3K (P27986 whole entry, the tested form may be a part): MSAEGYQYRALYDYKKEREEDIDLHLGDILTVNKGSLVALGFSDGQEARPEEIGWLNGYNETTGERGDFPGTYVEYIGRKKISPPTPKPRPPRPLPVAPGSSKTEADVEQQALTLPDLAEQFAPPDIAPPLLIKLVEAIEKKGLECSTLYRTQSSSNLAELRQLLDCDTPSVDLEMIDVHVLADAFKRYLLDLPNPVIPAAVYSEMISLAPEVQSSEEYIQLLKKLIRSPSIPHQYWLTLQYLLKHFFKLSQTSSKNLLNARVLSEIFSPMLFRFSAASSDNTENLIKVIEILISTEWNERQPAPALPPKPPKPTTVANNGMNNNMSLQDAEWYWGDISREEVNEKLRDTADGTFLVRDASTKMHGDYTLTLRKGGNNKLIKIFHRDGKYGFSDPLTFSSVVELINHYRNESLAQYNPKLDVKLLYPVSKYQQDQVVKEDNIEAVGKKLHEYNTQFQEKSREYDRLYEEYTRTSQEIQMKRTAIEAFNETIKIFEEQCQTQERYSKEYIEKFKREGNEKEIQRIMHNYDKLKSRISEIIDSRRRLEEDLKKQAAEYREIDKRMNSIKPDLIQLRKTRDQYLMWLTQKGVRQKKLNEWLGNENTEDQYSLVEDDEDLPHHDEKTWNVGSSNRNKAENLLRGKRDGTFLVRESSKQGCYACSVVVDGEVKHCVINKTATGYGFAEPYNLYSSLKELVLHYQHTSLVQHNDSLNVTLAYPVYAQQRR

## YMDM: phosphotyrosine-containing peptide ligand ([pY]MDM)
P85-PI3K
  binding to P85-PI3K: +++

## YITPLP: phosphotyrosine-containing peptide ligand ([pY]ITPLP)
PLCγ
  binding to PLCγ: +++

## YMNM: phosphotyrosine-containing peptide ligand ([pY]MNM)
P85-PI3K
  binding to P85-PI3K: +++

## GYKPFQDLI (G[pY]KPFQDLI) [phosphotyrosine-containing peptide ligand, Y is phosphotyrosine]
STAT6
  binding to STAT6: +++

## YMAP: phosphotyrosine-containing peptide ligand ([pY]MAP)
Ras-GAP
  binding to Ras-GAP: +++

## YTAVQP: phosphotyrosine-containing peptide ligand ([pY]TAVQP)
Syp
  binding to Syp: +++

## YEEI: phosphotyrosine-containing peptide ligand
Src
  binding to Src: +++

## SFG[pY]DKPHVL [SFGY*DKPHVL]
STAT1 protein [1]
  IC50: 600 nM
STAT4
  IC50: 10000 nM

## G[pY]DKPHVL [interferon-γ receptor-derived peptide sequence GY^PDKPHVL]
STAT1 protein [2]
  Kd: ~120 nM
